Publication PMC3961392
pKd: −log10 of the molar value.

What was measured:
A3G = A3G (Homo sapiens?) (UniProt Q9HC16); experiment: fluorescence anisotropy; conditions: RT buffer: 50 mM Tris pH 7.4, 40 mM KCl, 10 mM MgCl2, 1 mM DTT; 10 nM F-labeled DNA; 21 C
A3G NPM ins194_195NPM = A3G NPM ins194_195NPM (UniProt Q9HC16); experiment: fluorescence anisotropy; conditions: RT buffer: 50 mM Tris pH 7.4, 40 mM KCl, 10 mM MgCl2, 1 mM DTT; 10 nM F-labeled DNA; 21 C
Chain of A3G NPM ins194_195NPM (Q9HC16 whole entry): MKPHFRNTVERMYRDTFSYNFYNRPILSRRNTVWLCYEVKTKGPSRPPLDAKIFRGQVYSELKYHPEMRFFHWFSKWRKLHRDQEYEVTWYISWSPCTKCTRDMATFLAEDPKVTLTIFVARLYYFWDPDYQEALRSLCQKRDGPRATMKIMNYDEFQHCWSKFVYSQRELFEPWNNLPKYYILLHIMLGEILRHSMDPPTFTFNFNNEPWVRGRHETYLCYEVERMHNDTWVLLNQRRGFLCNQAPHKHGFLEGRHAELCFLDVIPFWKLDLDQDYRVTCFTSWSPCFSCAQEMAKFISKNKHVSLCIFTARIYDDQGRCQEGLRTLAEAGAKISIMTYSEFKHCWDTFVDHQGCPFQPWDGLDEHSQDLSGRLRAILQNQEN

Chain of A3G (Homo sapiens?) (Q9HC16 whole entry): as above

GAATATATGTTGAGACCCAAAGTAATGAGAGATTGATTAGATGAGTGTAATGTGATATATGTGTATGAAAGATATAAGACCCAAAGAGTAAAGTTGTTAATGTGTGTAGATATGTTAA [A3G - 63 (118 nt, CCC)]
pKd (A3G): 6.89 | pKd (A3G NPM ins194_195NPM): 7.25
